Patent EP3541419B1

Biological target: human dipeptidyl peptidase 4 (DPP4) expressed by cells (human) (UniProt P27487)
Test: cell-based or functional assay

UniProt P27487, sequence (P27487 whole entry): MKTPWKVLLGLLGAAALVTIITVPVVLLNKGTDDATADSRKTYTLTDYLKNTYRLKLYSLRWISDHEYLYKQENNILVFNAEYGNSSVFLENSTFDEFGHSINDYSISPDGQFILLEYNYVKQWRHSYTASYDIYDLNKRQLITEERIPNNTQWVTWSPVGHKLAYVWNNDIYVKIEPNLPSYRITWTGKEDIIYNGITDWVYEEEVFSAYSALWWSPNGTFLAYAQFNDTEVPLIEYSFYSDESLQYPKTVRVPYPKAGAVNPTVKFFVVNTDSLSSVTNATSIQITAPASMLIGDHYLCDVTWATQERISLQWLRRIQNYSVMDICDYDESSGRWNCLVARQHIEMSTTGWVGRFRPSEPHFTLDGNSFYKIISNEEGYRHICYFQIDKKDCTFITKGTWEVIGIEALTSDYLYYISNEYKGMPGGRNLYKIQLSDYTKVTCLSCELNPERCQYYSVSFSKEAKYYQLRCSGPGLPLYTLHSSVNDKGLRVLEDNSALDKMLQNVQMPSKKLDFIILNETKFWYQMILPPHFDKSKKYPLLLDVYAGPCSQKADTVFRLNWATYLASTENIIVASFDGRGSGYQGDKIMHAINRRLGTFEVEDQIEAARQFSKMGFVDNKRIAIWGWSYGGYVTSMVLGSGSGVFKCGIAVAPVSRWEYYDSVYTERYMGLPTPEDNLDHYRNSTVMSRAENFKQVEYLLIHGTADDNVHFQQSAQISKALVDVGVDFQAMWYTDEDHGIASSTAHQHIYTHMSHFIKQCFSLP

S377-588-Fc (residues 377-588 of MERS-CoV S protein fused to Fc of human IgG) (Fc fusion)
inhibition of CPE formation caused by MERS-CoV infection in Calu-3 cells: 3 µg/mL
